The chains are these.
B1: HDV Ribozyme (parent)
chain: GGCCGGCAUGGUCCCAGCCUCCUCGCUGGCGCCGGCUGGGCAACAUUCCGAGGGGACCGUCCCCUCGGUAAUGGCGAAUGGGACCCA

These results are taken from the RNAGym collection of RNA variant scans (doi:10.7554/elife.80360).

The variants in this data set derive from B1. The data set is described as follows: self-cleavage, relative activity (ratio to wild type); higher = more cleavage; co-transcriptional.
Turning to GGCCCGCAUGGUCCCAGCCUCCUCGCUGGCGCCGGCUGGGCAACAUUCCGAGGGGACCGUCCCCUCGGUAAUGGCGAAUAGGACCCA [G5C G80A], the self-cleavage was 0.256.
Under GGCCCGCAUGGUCCCAGCCUCCUCGCUGGCGCCGGCUGGGCAACAUUCCGAGGGGACCGUCCCCUCGGUAAUAGCGAAUGGGACCCA [G5C G73A] stands 0.0554.
In the case of GGCCCGCAUGGUCCCAGCCUCCUCGCUGGCGCCGGCUGGGCAACAUUCCGAGGGGACCGUCCCCUCGGUAAUCGCGAAUGGGACCCA [G5C G73C], the self-cleavage worked out at 0.0639.
Under GGCCCGCAUGGUCCCAGCCUCCUCGCUGGCGCCGGCUGGGCAACAUUCCGAGGGGACCGUCCCCUCGAUAAUGGCGAAUGGGACCCA [G5C G68A] stands 0.208; under GGCCCGCAUGGUCCCAGCCUCCUCGCUGGCGCCGGCUGGGCAACAUUCCGAGGGGACCGUCCCCUCGCUAAUGGCGAAUGGGACCCA [G5C G68C], 0.
As to GGCCCGCAUGGUCCCAGCCUCCUCGCUGGCGCCGGCAGGGCAACAUUCCGAGGGGACCGUCCCCUCGGUAAUGGCGAAUGGGACCCA [G5C U37A], the self-cleavage stood at 0.104.
Under GGCCUGCAUGGUCCCAGCCUCCUCGCUGGCGCCGGCUGGGCUACAUUCCGAGGGGACCGUCCCCUCGGUAAUGGCGAAUGGGACCCA [G5U A42U] stands 0.208.
For GGCCUGCAUGGUCCCAGCCUCCUCGCUGGCGCCGGCUGGGCGACAUUCCGAGGGGACCGUCCCCUCGGUAAUGGCGAAUGGGACCCA [G5U A42G], the self-cleavage was 0.249.
On to GGCCUGCAUGGUCCCAGCCUCCUCGCUGGCGCCGGCUGGGCAACAUUCCGAGGGGACCGUCCCCUCGGUAAUGGCGAAUGGGCCCCA [G5U A83C], for which the self-cleavage turned out to be 0.
Under GGCCUGCAUGGUCCCAGCCUCCUCGCUGGCGCCGGCUGGGCAACAUUCCGAGGGGACCGUCCCCUCGGUAAUGGCGAAUGGGUCCCA [G5U A83U] stands 0; under GGCCUGCAUGGUCCCAGCCUCCUCGCUGGCGCCGGCUGGGCAACAUUCCGAGGGGGCCGUCCCCUCGGUAAUGGCGAAUGGGACCCA [G5U A56G], 0.391; under GGCCCGCAUGGUCCCAGCCGCCUCGCUGGCGCCGGCUGGGCAACAUUCCGAGGGGACCGUCCCCUCGGUAAUGGCGAAUGGGACCCA [G5C U20G], 0.
To GGCCCGCAUGGUCCCAGCCACCUCGCUGGCGCCGGCUGGGCAACAUUCCGAGGGGACCGUCCCCUCGGUAAUGGCGAAUGGGACCCA [G5C U20A] belongs 0.
As to GGCCUGCAUGGUCCCGGCCUCCUCGCUGGCGCCGGCUGGGCAACAUUCCGAGGGGACCGUCCCCUCGGUAAUGGCGAAUGGGACCCA [G5U A16G], the self-cleavage was determined as 0.175.
To GGCCUGCGUGGUCCCAGCCUCCUCGCUGGCGCCGGCUGGGCAACAUUCCGAGGGGACCGUCCCCUCGGUAAUGGCGAAUGGGACCCA [G5U A8G] belongs 0.356.
Under GGCCUGCUUGGUCCCAGCCUCCUCGCUGGCGCCGGCUGGGCAACAUUCCGAGGGGACCGUCCCCUCGGUAAUGGCGAAUGGGACCCA [G5U A8U] stands 0.208; under GGCCUGCAUGGUCACAGCCUCCUCGCUGGCGCCGGCUGGGCAACAUUCCGAGGGGACCGUCCCCUCGGUAAUGGCGAAUGGGACCCA [G5U C14A], 0.0791; under GGCCUGCAUGGUCGCAGCCUCCUCGCUGGCGCCGGCUGGGCAACAUUCCGAGGGGACCGUCCCCUCGGUAAUGGCGAAUGGGACCCA [G5U C14G], 0.185.
In the case of GGCCCGCAUGGUCCCAGCCUCCUCGCUGGCGCCGGCUGGGCAACAUCCCGAGGGGACCGUCCCCUCGGUAAUGGCGAAUGGGACCCA [G5C U47C], the self-cleavage came to 0.0594.
To GGCCCGCAUGGUCCCAGCCUCCUCGCUGGCGCCGGCUGGGCAACAUGCCGAGGGGACCGUCCCCUCGGUAAUGGCGAAUGGGACCCA [G5C U47G] belongs 0.0536; to GGCCUGCAUGGUCCGAGCCUCCUCGCUGGCGCCGGCUGGGCAACAUUCCGAGGGGACCGUCCCCUCGGUAAUGGCGAAUGGGACCCA [G5U C15G], 0; to GGCCCGCAUGGUCCCAGCCUCCUCGCUGGCGCCGGCUGGGCAACAUUCCGAGGGUACCGUCCCCUCGGUAAUGGCGAAUGGGACCCA [G5C G55U], 0.17.
GGCCCGCAUGGUCCCAGCCUCCUCGCUGGCGCCGGCUGGGCAACAUUCCGAGGGAACCGUCCCCUCGGUAAUGGCGAAUGGGACCCA [G5C G55A]: the self-cleavage turned out to be 0.175.
With GGCCCGCAUGGUCCCAGCCUCCUCGCUGGCGCCGGCUGGGCAACAUUCCGAGGGGACCGUCCCCCCGGUAAUGGCGAAUGGGACCCA [G5C U65C], the self-cleavage was found to be 0.222.
As for GGCCCGCAUGGUCCCAGCCUCCUCGCUGGCGCCGGCUGGGCAACAUUCCGAGGGGACCGUCCCCGCGGUAAUGGCGAAUGGGACCCA [G5C U65G], the self-cleavage stood at 0.0978.
As to GGCCCGCAUGGUCCCAGCCUCCUCGCUGGCGCCGGCUGGGCAACAUUCCCAGGGGACCGUCCCCUCGGUAAUGGCGAAUGGGACCCA [G5C G50C], the self-cleavage amounted to 0.151.
Consider GGCCUGCAUGGUCCCAGCCUACUCGCUGGCGCCGGCUGGGCAACAUUCCGAGGGGACCGUCCCCUCGGUAAUGGCGAAUGGGACCCA [G5U C21A], for which the self-cleavage was 0.
As for GGCCUGCAUGGUCCCAGCCUCCUCGCUGGCGCCGGCUGGGCAACAUUCCGUGGGGACCGUCCCCUCGGUAAUGGCGAAUGGGACCCA [G5U A51U], the self-cleavage came out at 0.688.
With GGCCUGCAUGGUCCCAGCCUCCUCGCUGGCGCCGGCUGGGCAACAUUCCGGGGGGACCGUCCCCUCGGUAAUGGCGAAUGGGACCCA [G5U A51G], the self-cleavage was determined as 0.875.
Under GGCCCGCAUGGUCCCAGCCUCCUCGCUGGCGCCGGCUGGGCAACAUUCCGAUGGGACCGUCCCCUCGGUAAUGGCGAAUGGGACCCA [G5C G52U] stands 0.23.
Take GGCCCGCAUGGUCCCAGCCUCCUCGCUGGCGCCGGCUGGGCAACAUUCCGAGGGGACCGUCCCCUCGGUAAUGGCCAAUGGGACCCA [G5C G76C]: the self-cleavage turned out to be 0.199.
To GGCCCGCAUGGUCCCAGCCUCCUCGCUGGCGCCGGCUGGGCAACAUUCCGAGGGGACCGUCCCCUCGGUAAUGGCUAAUGGGACCCA [G5C G76U] belongs 0.378.
As for GGCCUGCAUGGUCCCAGCGUCCUCGCUGGCGCCGGCUGGGCAACAUUCCGAGGGGACCGUCCCCUCGGUAAUGGCGAAUGGGACCCA [G5U C19G], the self-cleavage was found to be 0.
Under GGCCUGCAUGGUCCCAGCUUCCUCGCUGGCGCCGGCUGGGCAACAUUCCGAGGGGACCGUCCCCUCGGUAAUGGCGAAUGGGACCCA [G5U C19U] stands 0.0923.
Under GGCCUGCAUGGUCCCAGCAUCCUCGCUGGCGCCGGCUGGGCAACAUUCCGAGGGGACCGUCCCCUCGGUAAUGGCGAAUGGGACCCA [G5U C19A] stands 0.256; under GGCCUGCAUGGUACCAGCCUCCUCGCUGGCGCCGGCUGGGCAACAUUCCGAGGGGACCGUCCCCUCGGUAAUGGCGAAUGGGACCCA [G5U C13A], 0.217.
Under GGCCUGCAUGGUGCCAGCCUCCUCGCUGGCGCCGGCUGGGCAACAUUCCGAGGGGACCGUCCCCUCGGUAAUGGCGAAUGGGACCCA [G5U C13G] stands 0.0978; under GGCCUGCAUGGUUCCAGCCUCCUCGCUGGCGCCGGCUGGGCAACAUUCCGAGGGGACCGUCCCCUCGGUAAUGGCGAAUGGGACCCA [G5U C13U], 0.115; under GGCCUGCAUGGUCCCAGCCUCCUCGCUGGCGCCGGCUGGGCAACAUUCCGAGGGGACCGUCCCCUCGGUUAUGGCGAAUGGGACCCA [G5U A70U], 0.222.
With GGCCUGCAUGGUCCCAGCCUCCUCGCUGGCGCCGGCUGGGCAACAUUCCGAGGGGACCGUCCCCUCGGUCAUGGCGAAUGGGACCCA [G5U A70C], the self-cleavage came out at 0.415.
For the variant GGCCUGCAUGGUCCCAGUCUCCUCGCUGGCGCCGGCUGGGCAACAUUCCGAGGGGACCGUCCCCUCGGUAAUGGCGAAUGGGACCCA [G5U C18U], the self-cleavage is 0.0504.
Under GGCCUGCAUGGUCCCAGGCUCCUCGCUGGCGCCGGCUGGGCAACAUUCCGAGGGGACCGUCCCCUCGGUAAUGGCGAAUGGGACCCA [G5U C18G] stands 0; under GGCCCGCAUGGUCCCAGCCUCCUCGCUGGCGCCGGCUGGGCAACAUUCCGAGGGGACCGUCCCCUCGGUAAUGGCGAACGGGACCCA [G5C U79C], 0.141; under GGCCCGCAUGGUCCCAGCCUCCUCGCUGGCGCCGGCUGGGCAACAUUCCGAGGGGACCGUCCCCUCGGUAAUGGCGAAAGGGACCCA [G5C U79A], 0.185.
In the case of GGCCCGCAUGGCCCCAGCCUCCUCGCUGGCGCCGGCUGGGCAACAUUCCGAGGGGACCGUCCCCUCGGUAAUGGCGAAUGGGACCCA [G5C U12C], the self-cleavage came to 0.
Consider GGCCCGCAUGGUCCCAGCCUCCUCGCUGGCGCCGGCUGGGCAACAUUCCGAGGGGACCGUCCCCUCGGUAAUGGCGAAUGGUACCCA [G5C G82U], for which the self-cleavage is 0.0594.
Under GGCCUGCAUGGUCCCAGCCUCCUCGCUGGCGCCGGCUGGGCAACAUUCCGAGGGGACCGUCCCCUCGGUAAUGGCGAGUGGGACCCA [G5U A78G] stands 0.332; under GGCCCGCAUGGUCCCAGCCUCCUCGCUGGCGCCGGCUGGGCAACAUUCCGAGUGGACCGUCCCCUCGGUAAUGGCGAAUGGGACCCA [G5C G53U], 0.291.
Under GGCCUGCAUGGUCCCAGCCUCCUAGCUGGCGCCGGCUGGGCAACAUUCCGAGGGGACCGUCCCCUCGGUAAUGGCGAAUGGGACCCA [G5U C24A] stands 0.158; under GGCCCGCAUGGUCCCAGCCUCCUCGCUGGCGCCGGCUGGGCAACAUUCCGAGGGGACCGUCCCCUCGGGAAUGGCGAAUGGGACCCA [G5C U69G], 0.111.
Under GGCCCGCAUGGUCCCAGCCUCCUCGCUGGCGCCGGCUGGGCAACAUUCCGAGGGGACCGUCCCCUCGGAAAUGGCGAAUGGGACCCA [G5C U69A] stands 0.111; under GGCCCGCAUGGUCCCAGCCUCCUCGCCGGCGCCGGCUGGGCAACAUUCCGAGGGGACCGUCCCCUCGGUAAUGGCGAAUGGGACCCA [G5C U27C], 0; under GGCCCGCAUGGUCCCAGCCUCCUCGCAGGCGCCGGCUGGGCAACAUUCCGAGGGGACCGUCCCCUCGGUAAUGGCGAAUGGGACCCA [G5C U27A], 0.227.
Consider GGCCUGCAUGGUCCCAGCCUCGUCGCUGGCGCCGGCUGGGCAACAUUCCGAGGGGACCGUCCCCUCGGUAAUGGCGAAUGGGACCCA [G5U C22G], for which the self-cleavage turned out to be 0.0615.
With GGCCCGCAUGGUCCCAGCCUCCUCGCUGGCGCCGGCUGGGCAACAUUCCGAGGGGACCCUCCCCUCGGUAAUGGCGAAUGGGACCCA [G5C G59C], the self-cleavage was found to be 0.0791.
Under GGCCUGCAUGGUCCCAGCCUCCUCGCUGGCGCCGGCUGGGCAACAUUCCGAGGGGACCGUCCCCUCGGUAAUGGCGAAUGGGACCCU [G5U A87U] stands 0.293.
For GGCCCGCAUGGUCCCAGCCUCCCCGCUGGCGCCGGCUGGGCAACAUUCCGAGGGGACCGUCCCCUCGGUAAUGGCGAAUGGGACCCA [G5C U23C], the self-cleavage stood at 0.208.
Take GGCCCGCAUGGUCCCAGCCUCCGCGCUGGCGCCGGCUGGGCAACAUUCCGAGGGGACCGUCCCCUCGGUAAUGGCGAAUGGGACCCA [G5C U23G]: the self-cleavage is 0.0615.
On to GGCCCGCAUGGUCCCAGCCUCCACGCUGGCGCCGGCUGGGCAACAUUCCGAGGGGACCGUCCCCUCGGUAAUGGCGAAUGGGACCCA [G5C U23A], for which the self-cleavage came to 0.
For the variant GGCCCGCAUGGUCCCAGCCUCCUCGCUGGCGCCGGCUGGGCAACAUUCCGAGGGGACCGUCCCCUCCGUAAUGGCGAAUGGGACCCA [G5C G67C], the self-cleavage is 0.252.
To GGCCCGCAUGGUCCCAGCCUCCUCGCUGGCGCCGGCUGGGCAACAUUCCGAGGGGACCGUCCCCUCUGUAAUGGCGAAUGGGACCCA [G5C G67U] belongs 0.248.
For the variant GGCCCGCAUGGUCCCAGCCUCCUCGCUGGCGCCGGCUGGGCAACAUUCCGAGGGGACCGUCCCCUCAGUAAUGGCGAAUGGGACCCA [G5C G67A], the self-cleavage was 0.353.
To GGCCCGCAUGGUCCCAGCCUCCUCGCUGGCGCCGGCUGGGCAACAUUCCGAGGGGACCGUCCCCUCGGUAAGGGCGAAUGGGACCCA [G5C U72G] belongs 0.0831; to GGCCCGCAUGGUCCCAGCCUCCUCGCUGGCGCCGGCUGGGCAACAUUCCGAGGGGACCGUCCCCUCGGUAAAGGCGAAUGGGACCCA [G5C U72A], 0.095.
